1 molecule from patent US20150037340A1 (PEIRRE FABRE MEDICAMENT, published 2015) can be followed below.

Assay [1] has as its target monkey Axl receptor expressed on the surface of COS7 cells (African green monkey). The assay is described as follows: flow cytometry on COS7 cells, goat anti-mouse Alexa 488.
In assay [2] the target is T1, recombinant human Axl-Fc (R and D Systems, cat No 154-AL / 154AL/CF) (human, UniProt P30530 26-451).
T1 construct: Bought protein; also called rhAxl-Fc; rh Axl-Fc protein; not shown: human IgG Fc portion (detected with anti-human IgG Fc)
T1 sequence: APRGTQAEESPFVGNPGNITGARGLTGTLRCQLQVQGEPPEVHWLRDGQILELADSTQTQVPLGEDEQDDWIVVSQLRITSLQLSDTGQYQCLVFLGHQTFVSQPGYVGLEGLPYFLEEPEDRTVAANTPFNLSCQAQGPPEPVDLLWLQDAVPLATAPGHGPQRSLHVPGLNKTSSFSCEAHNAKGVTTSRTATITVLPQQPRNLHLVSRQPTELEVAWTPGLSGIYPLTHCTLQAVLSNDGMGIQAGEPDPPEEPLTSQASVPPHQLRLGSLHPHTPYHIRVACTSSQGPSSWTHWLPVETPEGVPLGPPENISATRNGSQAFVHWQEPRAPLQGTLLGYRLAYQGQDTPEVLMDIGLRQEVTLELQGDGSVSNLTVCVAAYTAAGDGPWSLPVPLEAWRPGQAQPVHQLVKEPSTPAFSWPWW
The assay is described as follows: sandwich ELISA: plate coated with the antibody, rhAxl-Fc titrated (the axis on the sheet reads 'Ab concentration'), detection with a biotinylated anti-Axl antibody and avidin-HRP. As for the experimental part:
First ELISA experiments were realized. In the assay, 96 well plates (Immulon II, Thermo Fisher) were coated with a 5 μg/m of the 1613F12 solution in 1×PBS, overnight at 4° C. […] For the revelation step, a biotinylated-Axl antibody (in house product) was added at 0.85 μg/m for 1 hour at 37° C. This Axl antibody belongs to a distinct epitopic group. Then an avidin-horseradish peroxidase solution at 1/2000° in diluent buffer is added to the wells. Then the TMB substrate solution is added for 5 min. After addition of the peroxydase stop solution, the absorbance at […] was measured with a microplate reader.

Assay [3] concerns the target T2, human extracellular domain (ECD) of Axl, His-tagged (pCEP[AXL]His6, produced in HEK293E) (human, UniProt P30530 26-451).
T2 construct: also called human Axl ECD; rhAxl ECD; not shown: His6 tag
T2 sequence: T1 sequence
The experiment in a line: SPR (Biacore X), antibody captured on CM5 chip, Axl ECD as analyte, 1:1 Langmuir model. As for the experimental part: Briefly, the experiments were realized using a sensor chip CM5 as the biosensor. Rabbit IgGs were immobilized on the flow cells 1 and 2 (FC 1 and FC2) of a CM5 sensor chip at a level of 9300-10000 response units (RU) using amine coupling chemistry to capture antibodies.
Binding is evaluated using multiple cycles. Each cycle of measure is performed using a flow rate of 30 μl/imin in a HBS-EP buffer. Then the Axl antibody to test is captured on the chip for 1 min on FC2 only to reach a mean capture value of 311.8 RU (SD=5.1 RU) for the 1613F12. The analyte (Axl ECD antigen) is injected starting at 200 nM and using two-fold serial dilutions to measure rough ka and kd in real time.
At the end of each cycle, the surfaces are regenerated by injecting a 10 mM glycine hydrochloride pH1.5 solution to eliminate the antibody-antigen complexes and the capture antibody as well. The considered signal corresponds to the difference of the signals observed between FC1 and FC2 (FC2-FC1). Association rates (ka) and dissociation rates (kd) were calculated using a one-to-one Langmuir binding model. The equilibrium dissociation constant (KD) is determined as the […]. The experimental values were analyzed in the Biaevaluation software version 3.0. A χ2 analysis will be performed to assess the accuracy of the data.

Assay [4] addresses T1, recombinant human Axl-Fc (R and D …). The assay is described as follows: ELISA on coated rhAxl-Fc, detection with goat anti-mouse IgG-HRP. As for the experimental part:
Then ½ serial dilutions were done over 12 columns. Plates were washed and a goat anti-mouse (Jackson) specific IgG-HRP was added for 1 h at 37° C. Reaction development was performed using the TMB substrate solution. […] Coating controls were performed in presence of a goat anti-human IgG Fc polyclonal serum labelled with HRP (Jackson, ref 109-035-098) and/or in presence of a HRP-coupled anti-Histidine antibody (R and D Systems, ref: MAB050H). Results are represented in FIGS. 2A, 2B and 2C, respectively.

Assay [5] shares this target. The experiment in a line: competition ELISA: rhAxl-Fc pre-incubated with the antibody, loaded on coated rhGas6 (blocked ligand), bound rhAxl-Fc detected with anti-human IgG-HRP. As to the method: To further characterize the 1613F12, Gas6 competition assays were performed. In this assay, the free rhAxl-Fc protein and the 1613F12 are incubated to form antigen-antibody complex and then the complexes are loaded on Gas6-coated surface in the assay plate. The unbound antibody-antigen complexes are washed out before adding enzyme-linked secondary antibody against the human Fc portion of the rhAxl-Fc protein. The substrate is then added and the antigen concentration can be determined by the signal strength elicited by the enzyme-substrate reaction.
Briefly reaction mixture comprising the rhAxl-Fc protein in the presence or not of the anti-Axl Mabs to be tested, are prepared on a separate saturated (0.5% gelatin in PBS 1×) plate. Serial 1: 2 dilutions (starting from 80 μg/ml on 12 columns) of murine anti-Axl antibodies are performed. […] After homogenisation, the competition samples are loaded on Gas6-coated plates with a 6 μg/m rhGas6 solution in PBS (R and D Systems cat No 885-GS-CS/CF). After incubation and several washes, bound rhAxl-Fc proteins are detected using a goat anti-Human IgG-HRP (Jackson, ref. 109-035-098). Once bound, the TMB substrate is added to the plates. The reaction is stopped by addition of 1M H₂SO₄ acid solution and the obtained optical densities read at 450 nm using a microplate reader instrument.

B1: 1613F12 antibody (murine form) (antibody, V domains shown)
VH: EVHLQQSGAELVKPGASVKLSCTASGFNIRDTYIHWVKQRPEQGLEWIGRLDPANGHTKYGPNFQGRATMTSDTSSNTAYLQLSSLTSEDTAVYYCARGAYYYGSSGLFYFDYWGQGTTLSVSS
VL: DVQITQSPSYLATSPGETITINCRASKSISKYLAWYQEKPGKTNKLLIYSGSTLQSGVPSRFSGSGSGTDFTLTISSLEPEDFAMYFCQQHHEYPLTFGAGTELELK
notes: Whole murine monoclonal antibody purified from a hybridoma; a murine IgG1 (9G4) serves as its isotype control; also called m1613F12; monoclonal antibody 1613F12 derived from the hybridoma I-4505
The molecule B1 returned an EC50 (read off the curve) in assay [1] of 1 nM. In addition, in assay [2], the concentration for a half-maximal effect (EC50 (read off the curve)) is ~0.04 µg/mL. Besides, in assay [3], the Kd came out at 2.29 nM, the koff came to 0.000242 s⁻¹ and the association rate constant (kon) worked out at 106000 M⁻¹ s⁻¹. For the same molecule, the 50% effective concentration (EC50 (read off the curve)) in assay [4] was ~1 nM. Further, the “IC50 (read off the curve)” value in assay [5] is ~20 nM.
